Source: patent US8460669B2, “Compositions and methods for identifying response targets and treating flavivirus infection responses” (Academia Sinica, priority 2005, dated 2013)
Blank lines part the entries; values can stand above or below the molecule they belong to.

Biological target: T1, DVLR1/CLEC5A (Homo sapiens, UniProt Q9NY25)
T1 construct: endogenous in cells; host or cells: human CD14+ PBMC-derived macrophages (M-CSF, 6 days)
T1 sequence (Q9NY25 1-188): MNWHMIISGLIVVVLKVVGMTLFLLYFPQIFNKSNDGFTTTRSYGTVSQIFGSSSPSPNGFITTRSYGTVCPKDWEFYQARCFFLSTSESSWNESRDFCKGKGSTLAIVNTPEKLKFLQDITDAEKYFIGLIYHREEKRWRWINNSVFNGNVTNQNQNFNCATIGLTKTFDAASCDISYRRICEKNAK
Experiment: DV-induced TNF-α secretion from human macrophages with anti-DVLR1/CLEC5A mAbs
Format: cell-based
Details: for TNF-α release from macrophages after infection with DEN1, DEN2, DEN3 and DEN4: dose-dependent manner, ELISA of culture supernatants
Excerpt: Monoclonal antibodies against DVLR1/CLEC5A were generated using standard techniques. Briefly, mice were immunized with DVLR-1.Fc fusion protein, and hybridomas were formed by fusing spienocytes from the mice with P3/NSI/1-Ag4-1 [NS-1] myeloma cells (ATCC TIB-18). Among the mAbs generated, clone 9B12, the subclones of 3E12 (clones 3E12A2, 3E12C1, 3E12G9), and clone 8H8F5 suppressed TNF-α release from macrophages after infection with DEN1 (strain 766733A), DEN2 (strain PL046), DEN3 (strain H-87), and DEN4 (strain 866146A) in a dose-dependent manner. […] In accordance with standard nomenclature, each antibody is referred to via the clone number of the hybridoma that secretes it.
According to embodiments illustrated in FIG. 19, DVLR1/CLEC5A is critical for DV-mediated TNF-α, but not IFN-α, secretion. More specifically, FIG. 19a illustrates the dose-dependency of DV and UV-DV induced TNF-α secretion by macrophages measured by ELISA at 6 h and 12 h p.i. FIG. 19b illustrates the kinetics of TNF-α expression after DV infection (m.o.i.=5). FIG. 19c illustrates the effects of DVLR1/CLEC5A and DC-SIGN shRNAs on the secretion of TNF-α, IL-6, MIP1-α, IL-8, IP-10, and IFN-α from DV-infected macrophages (m.o.i.=5). In FIG. 19d, knockdown experiments with receptor specific shRNAs illustrating that DV-induced IFN-α secretion is via the TLR7-MyD88 pathway and TNF-α secretion is via DVLR1/CLEC5A-TLR7-MyD88 pathway. FIG. 19e illustrates antagonistic anti-DVLR1/CLEC5A mAbs inhibiting TNF-α secretion in response to DV serotypes 1-4 is inhibited (see Table 3).
M.R. mAb (anti-mannose receptor mAb; mIgG1) and murine IgM (mIgM) were used as negative controls. In both FIG. 19d and FIG. 19e, macrophages were infected with DV (m.o.i.=5) and harvested at 36 h p.i. for cytokine assays. Data are expressed as mean±s.d. of three independent experiments (using material from at least three different donors). Two-tailed, Student's t-tests were performed. “ND” represents not detected.

[1] = antibody 10 μg/sample, p vs isotype control, m.o.i.=5, 36 h p.i.

- Antagonistic DV2 (suppression of DV-induced TNF-α secretion) [1]: ** (“**” - p < 0.01)
- Antagonistic DV3 (suppression of DV-induced TNF-α secretion) [1]: ** (“**” - p < 0.01)
- TNF-α release from macrophages after infection with DEN1, DEN2, DEN3 and DEN4: suppressed
B1: 3E12G9: anti-human DVLR1/CLEC5A monoclonal antibody, subclone of 3E12; VH SEQ ID NO: 62, VL SEQ ID NO: 63 (antibody, V domains shown)
VH: QVQLEQSGPELVKPGASVKLSCKASGYTFTEYIIHWVKQRSGQGLEWIGWFYPGSGSIKYNEKFKDKATLTADKSSSTVYMELSGLTSEDSAVYFCARHDGYSYFDYWGQGTTLTV
VL: QSPSSLAVSAGEKVTMSCKSSQSLLNSRTRKNYLAWYQQKPGQSPKLLIYWASTRESGVPDRFTGSGSGTDFTLTISSVQAEDLAVYYCKQSYNLYTFGGGTKLEIK

- Antagonistic DV1 (suppression of DV-induced TNF-α secretion) [1]: * (“*” - p < 0.05)
- Antagonistic DV2 (suppression of DV-induced TNF-α secretion) [1]: *** (“***” - p < 0.001)
- Antagonistic DV3 (suppression of DV-induced TNF-α secretion) [1]: ** (“**” - p < 0.01)
- Antagonistic DV4 (suppression of DV-induced TNF-α secretion) [1]: * (“*” - p < 0.05)
- TNF-α release from macrophages after infection with DEN1, DEN2, DEN3 and DEN4: suppressed
B2: 8H8F5: anti-human DVLR1/CLEC5A monoclonal antibody; VH SEQ ID NO: 64, VL SEQ ID NO: 65 (antibody, V domains shown)
VH: ESGRGLVQPGGSRKLSCAASGFTFSTSGMHWVRQAPEKGLEWVAYISSGSTTIYHADTVKGRFTISRDNPKNTLFLQMTSLRSEDTAMYYCARSGQFGNYFDYWGQGTTLTVSS
VL: MTQSPKFLLVSAGDRVTLTCKASQSVNNDVYWYQQEPGQSPKLLIYYASNRYTGVPDRFTGSGYGTDFTFTISTVQSEDLAVYFCQHDYSSPYTFGGGTKLEIKR
